For this test, the target named is A/WSN/1933 (H1N1) hemagglutinin (Influenza A virus A/WSN/1933 (H1N1)). Briefly: gel filtration.

B1: HB36.3 (Asp47Ser, Ala60Val) (designed binder)
chain: MSNAMDGQQLNRLLLEWIGAWDPFGLGKDAYDVEAEAVLQAVYETESAFDLAMRIMWIYVFAFNRPIPFPHAQKLARRLLELKQAASSPLPLE
As for B1, the binding result was “binds”.

(Values after patent publication US20140206628A1 (University of Washington, published 2014).)
